From the supplement of paper PMC9112550, “Optimization of the antimicrobial peptide Bac7 by deep mutational scanning” (BMC Biology, 2022) come the findings set out here.
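Note: peptides expressed intracellularly from a pBAD plasmid library in pooled LB shake-flask culture, induced with 0.3% L-arabinose, DNA abundance read by NGS, three biological replicates, DESeq2 with apeglm shrinkage.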

In the data set the test system is Escherichia coli TOP10. Put plainly: shrunken log2 fold change of peptide-encoding DNA abundance (4.5 h post-induction vs induction); higher = less antimicrobial activity (less host growth inhibition). To be noted: time post-induction: 4.5 h; library: site-saturation at positions 5, 18, 19, 20.
As to RRIRERPPRLPRPRPRPQNEPRP, the “shrunken log2 fold change” value is -0.581.

For the sequence RRIRPRPPRLPRPRPRPRTKPRP, the “shrunken log2 fold change” value was 0.518. In the case of RRIRMRPPRLPRPRPRPAFFPRP, the “shrunken log2 fold change” value worked out at 0.403. For RRIRHRPPRLPRPRPRPGIPPRP, the “shrunken log2 fold change” value was 0.0292.

For the sequence RRIRKRPPRLPRPRPRPFRRPRP, the “shrunken log2 fold change” value is 0.0327. The figure for RRIRQRPPRLPRPRPRPTVVPRP is -0.00822; for RRIRLRPPRLPRPRPRPQEHPRP it is -0.167; for RRIRPRPPRLPRPRPRPYQMPRP it is -0.722. The value for RRIRPRPPRLPRPRPRPTQLPRP was 0.166. The value for RRIRKRPPRLPRPRPRPPEYPRP was 0.0748. For RRIRWRPPRLPRPRPRPVHLPRP, the “shrunken log2 fold change” value is -0.00868.

For RRIRNRPPRLPRPRPRPDYYPRP, the “shrunken log2 fold change” value was -1.4. The value for RRIRWRPPRLPRPRPRPTQAPRP was 1.45; that for RRIRYRPPRLPRPRPRPLKDPRP was -0.00674; that for RRIRLRPPRLPRPRPRPVIEPRP was -0.0888.

With RRIRNRPPRLPRPRPRPPFNPRP, the “shrunken log2 fold change” value was -0.299. The figure for RRIRFRPPRLPRPRPRPPELPRP is 0.106; for RRIRARPPRLPRPRPRPAGKPRP it is 0.164; for RRIRSRPPRLPRPRPRPYWLPRP it is -0.248. The figure for RRIRARPPRLPRPRPRPGWPPRP is 0.789; for RRIRRRPPRLPRPRPRPSFVPRP it is -0.0435; for RRIRFRPPRLPRPRPRPGNVPRP it is 0.0145. The figure for RRIRVRPPRLPRPRPRPYINPRP is -0.724; for RRIRVRPPRLPRPRPRPYHTPRP it is -0.15; for RRIRVRPPRLPRPRPRPPICPRP it is -0.131.

Take RRIRWRPPRLPRPRPRPIFCPRP: the “shrunken log2 fold change” value worked out at 0.067. The value for RRIRLRPPRLPRPRPRPGFEPRP was 0.168; that for RRIRRRPPRLPRPRPRPSCFPRP was -0.0896. Regarding RRIRFRPPRLPRPRPRPPGCPRP, the “shrunken log2 fold change” value is 0.453. Consider RRIRFRPPRLPRPRPRPPRLPRP, for which the “shrunken log2 fold change” value stood at 0.399. The value for RRIRVRPPRLPRPRPRPTALPRP was 0.388; that for RRIRQRPPRLPRPRPRPWHTPRP was -0.169. On to RRIRQRPPRLPRPRPRPKMKPRP, for which the “shrunken log2 fold change” value is -0.08. The figure for RRIRHRPPRLPRPRPRPIEQPRP is -0.0277; for RRIRQRPPRLPRPRPRPSGPPRP it is -0.0826; for RRIRHRPPRLPRPRPRPSAYPRP it is -0.562.

Regarding RRIRNRPPRLPRPRPRPTTLPRP, the “shrunken log2 fold change” value is -0.294. The figure for RRIRKRPPRLPRPRPRPTPNPRP is 0.553; for RRIRYRPPRLPRPRPRPKWDPRP it is -0.46.

For the sequence RRIRKRPPRLPRPRPRPQHQPRP, the “shrunken log2 fold change” value stood at 0.122. Turning to RRIRERPPRLPRPRPRPLMFPRP, the “shrunken log2 fold change” value was -0.32. The value for RRIRDRPPRLPRPRPRPDKEPRP was -0.0124; that for RRIRRRPPRLPRPRPRPQITPRP was 0.0752. The figure for RRIRMRPPRLPRPRPRPEQSPRP is 3.19; for RRIRERPPRLPRPRPRPETGPRP it is -0.373; for RRIRTRPPRLPRPRPRPMPAPRP it is 0.102. For RRIRHRPPRLPRPRPRPMMGPRP, the “shrunken log2 fold change” value was -0.01.

Turning to RRIRPRPPRLPRPRPRPFVAPRP, the “shrunken log2 fold change” value is -0.186.

For RRIRYRPPRLPRPRPRPPWQPRP, the “shrunken log2 fold change” value was -0.121. The value for RRIRVRPPRLPRPRPRPIPVPRP was -0.363; that for RRIRERPPRLPRPRPRPRRPPRP was 0.27; that for RRIRVRPPRLPRPRPRPCSRPRP was -0.0712. RRIRDRPPRLPRPRPRPKPQPRP: the “shrunken log2 fold change” value turned out to be 0.111.

On to RRIRHRPPRLPRPRPRPTCDPRP, for which the “shrunken log2 fold change” value is -0.011. Take RRIRYRPPRLPRPRPRPPLKPRP: the “shrunken log2 fold change” value was -0.192. Turning to RRIRARPPRLPRPRPRPASNPRP, the “shrunken log2 fold change” value came to 0.5.

As to RRIRARPPRLPRPRPRPRECPRP, the “shrunken log2 fold change” value was 0.804. Take RRIRWRPPRLPRPRPRPQIPPRP: the “shrunken log2 fold change” value is -0.493. The figure for RRIRGRPPRLPRPRPRPIRCPRP is 0.261; for RRIRRRPPRLPRPRPRPEMTPRP it is 0.638. In the case of RRIRKRPPRLPRPRPRPLSYPRP, the “shrunken log2 fold change” value was -0.0509. The value for RRIRARPPRLPRPRPRPTEKPRP was 0.413; that for RRIRGRPPRLPRPRPRPMYFPRP was -0.0129.

RRIRLRPPRLPRPRPRPIYQPRP: the “shrunken log2 fold change” value is -0.385.

For RRIRFRPPRLPRPRPRPYCRPRP, the “shrunken log2 fold change” value is -0.256. The figure for RRIRIRPPRLPRPRPRPSLGPRP is -0.245; for RRIRMRPPRLPRPRPRPPMTPRP it is 0.789.

With RRIRPRPPRLPRPRPRPYSCPRP, the “shrunken log2 fold change” value was -0.183. On to RRIRYRPPRLPRPRPRPPEAPRP, for which the “shrunken log2 fold change” value was 0.0456. The value for RRIRTRPPRLPRPRPRPVHSPRP was -0.0193; that for RRIRHRPPRLPRPRPRPGRKPRP was 0.00144; that for RRIRCRPPRLPRPRPRPKNRPRP was -0.118. The value for RRIRFRPPRLPRPRPRPKDNPRP was -0.000409.

In the case of RRIRWRPPRLPRPRPRPKDAPRP, the “shrunken log2 fold change” value came to 0.362. The value for RRIRQRPPRLPRPRPRPIDQPRP was -0.0135; that for RRIRARPPRLPRPRPRPQFDPRP was 0.545; that for RRIRSRPPRLPRPRPRPVQCPRP was -0.102. The value for RRIRVRPPRLPRPRPRPNANPRP was 0.063; that for RRIRHRPPRLPRPRPRPCYTPRP was 0.0618; that for RRIRERPPRLPRPRPRPSIAPRP was -0.259. The value for RRIRGRPPRLPRPRPRPVAAPRP was 1.73; that for RRIRIRPPRLPRPRPRPMSHPRP was -0.0862; that for RRIRCRPPRLPRPRPRPWGYPRP was -0.372. Turning to RRIRGRPPRLPRPRPRPAYKPRP, the “shrunken log2 fold change” value was -0.202. Consider RRIRKRPPRLPRPRPRPKSGPRP, for which the “shrunken log2 fold change” value was found to be 0.0187. The value for RRIRARPPRLPRPRPRPSKQPRP was 0.0216; that for RRIRQRPPRLPRPRPRPKGIPRP was 0.0655; that for RRIRMRPPRLPRPRPRPSKYPRP was -0.166.

Regarding RRIRQRPPRLPRPRPRPWLHPRP, the “shrunken log2 fold change” value is 0.0098. The value for RRIRFRPPRLPRPRPRPMIEPRP was 0.0675. The value for RRIRMRPPRLPRPRPRPCWIPRP was -0.351. The figure for RRIRARPPRLPRPRPRPVVGPRP is 0.5; for RRIRHRPPRLPRPRPRPPMIPRP it is -0.105; for RRIRIRPPRLPRPRPRPAVVPRP it is -0.0892.

With RRIRNRPPRLPRPRPRPKGQPRP, the “shrunken log2 fold change” value was 0.0938.

RRIRNRPPRLPRPRPRPGRRPRP: the “shrunken log2 fold change” value was 0.79. The figure for RRIRCRPPRLPRPRPRPRCMPRP is -0.143; for RRIRKRPPRLPRPRPRPNLQPRP it is 0.279.

In the case of RRIRTRPPRLPRPRPRPWISPRP, the “shrunken log2 fold change” value is -0.0102. Take RRIRHRPPRLPRPRPRPPNQPRP: the “shrunken log2 fold change” value was -0.0151. The figure for RRIRWRPPRLPRPRPRPAFMPRP is 0.0849; for RRIRNRPPRLPRPRPRPMCVPRP it is -0.166. The value for RRIRGRPPRLPRPRPRPSPGPRP was 0.732. In the case of RRIRKRPPRLPRPRPRPLTIPRP, the “shrunken log2 fold change” value came out at 0.146. The value for RRIRVRPPRLPRPRPRPYMFPRP was -0.552. The value for RRIRCRPPRLPRPRPRPEFWPRP was 0.163. Regarding RRIRERPPRLPRPRPRPGQYPRP, the “shrunken log2 fold change” value was -0.113.

In the case of RRIRCRPPRLPRPRPRPCALPRP, the “shrunken log2 fold change” value is -0.213. The value for RRIRCRPPRLPRPRPRPWDEPRP was 0.247.

On to RRIRTRPPRLPRPRPRPINYPRP, for which the “shrunken log2 fold change” value was -0.502. The figure for RRIRFRPPRLPRPRPRPNFDPRP is -0.181; for RRIRNRPPRLPRPRPRPMENPRP it is -0.0164; for RRIRWRPPRLPRPRPRPTFLPRP it is 0.146. The figure for RRIRDRPPRLPRPRPRPVAGPRP is 0.851; for RRIRRRPPRLPRPRPRPKKMPRP it is 0.318. The figure for RRIRKRPPRLPRPRPRPCTPPRP is 0.192; for RRIRYRPPRLPRPRPRPFTQPRP it is -0.646; for RRIRFRPPRLPRPRPRPQMFPRP it is -0.103. For RRIRWRPPRLPRPRPRPAWDPRP, the “shrunken log2 fold change” value was 1.05.

With RRIRTRPPRLPRPRPRPNENPRP, the “shrunken log2 fold change” value was 1.59. The figure for RRIRVRPPRLPRPRPRPSVWPRP is 0.102; for RRIRFRPPRLPRPRPRPDLIPRP it is -0.0121.

In the case of RRIRVRPPRLPRPRPRPLHFPRP, the “shrunken log2 fold change” value was -0.346.

Regarding RRIRTRPPRLPRPRPRPTAGPRP, the “shrunken log2 fold change” value was determined as 0.59.

On to RRIRRRPPRLPRPRPRPDQVPRP, for which the “shrunken log2 fold change” value was found to be 0.0594.
